Key:
[1] = biological target: GST-TA3mut (functionally impaired TA3 mutant, aa 361-370 replaced by alanines, fused to GST) (mouse) (UniProt Q04207); test: affinity purification with mass spectrometry; SILAC; GST baits (GST-TA3, GST-TA3mut) immobilised; nuclear extracts of TNF-α-treated HeLa S3 cells or of 3T3 fibroblasts, 4 hours at 4°C; wash 20 mM Hepes pH 7.6, 1 mM EDTA, 10% glycerol, 0.1% NP40, 100 mM KCl; elution with 0.2% sarkosyl; label swap, four biological replicates
[2] = biological target: GST-TA3mut (functionally impaired TA3 mutant, aa 361-370 replaced by alanines, fused to GST) (mouse) (UniProt Q04207); test: pull-down; GST alone, GST-TA3 or GST-TA3mut as baits; transfected HEK-293 cells overexpressing tagged Zbtb7a; Zbtb7a detected by immunoblotting

Chain of UniProt Q04207 (Q04207 other isoform, or with tags, fused parts or gaps, change not shown): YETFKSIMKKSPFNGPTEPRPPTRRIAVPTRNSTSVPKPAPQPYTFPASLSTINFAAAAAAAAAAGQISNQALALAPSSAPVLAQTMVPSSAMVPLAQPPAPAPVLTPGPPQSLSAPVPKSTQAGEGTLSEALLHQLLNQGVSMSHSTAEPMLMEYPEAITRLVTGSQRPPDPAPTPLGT

Substance: Zbtb7a, endogenous in nuclear extracts of TNF-α-stimulated human HeLa S3 cells (from UniProt O95365 1-584) (natural protein)
- fold reduction of binding against unmutated TA3 [1]: 5 to 7 times

Substance: tagged Zbtb7a overexpressed in transfected HEK-293 cells (from UniProt O88939 1-569) (natural protein)
- fold reduction of binding against unmutated TA3 [2]: 2 times

Reference: article PMC5993293
